The target of this assay is T1, human 2-oxoglutarate dehydrogenase (hE1o) (human, UniProt Q02218 41-1023).
T1 sequence (looked up): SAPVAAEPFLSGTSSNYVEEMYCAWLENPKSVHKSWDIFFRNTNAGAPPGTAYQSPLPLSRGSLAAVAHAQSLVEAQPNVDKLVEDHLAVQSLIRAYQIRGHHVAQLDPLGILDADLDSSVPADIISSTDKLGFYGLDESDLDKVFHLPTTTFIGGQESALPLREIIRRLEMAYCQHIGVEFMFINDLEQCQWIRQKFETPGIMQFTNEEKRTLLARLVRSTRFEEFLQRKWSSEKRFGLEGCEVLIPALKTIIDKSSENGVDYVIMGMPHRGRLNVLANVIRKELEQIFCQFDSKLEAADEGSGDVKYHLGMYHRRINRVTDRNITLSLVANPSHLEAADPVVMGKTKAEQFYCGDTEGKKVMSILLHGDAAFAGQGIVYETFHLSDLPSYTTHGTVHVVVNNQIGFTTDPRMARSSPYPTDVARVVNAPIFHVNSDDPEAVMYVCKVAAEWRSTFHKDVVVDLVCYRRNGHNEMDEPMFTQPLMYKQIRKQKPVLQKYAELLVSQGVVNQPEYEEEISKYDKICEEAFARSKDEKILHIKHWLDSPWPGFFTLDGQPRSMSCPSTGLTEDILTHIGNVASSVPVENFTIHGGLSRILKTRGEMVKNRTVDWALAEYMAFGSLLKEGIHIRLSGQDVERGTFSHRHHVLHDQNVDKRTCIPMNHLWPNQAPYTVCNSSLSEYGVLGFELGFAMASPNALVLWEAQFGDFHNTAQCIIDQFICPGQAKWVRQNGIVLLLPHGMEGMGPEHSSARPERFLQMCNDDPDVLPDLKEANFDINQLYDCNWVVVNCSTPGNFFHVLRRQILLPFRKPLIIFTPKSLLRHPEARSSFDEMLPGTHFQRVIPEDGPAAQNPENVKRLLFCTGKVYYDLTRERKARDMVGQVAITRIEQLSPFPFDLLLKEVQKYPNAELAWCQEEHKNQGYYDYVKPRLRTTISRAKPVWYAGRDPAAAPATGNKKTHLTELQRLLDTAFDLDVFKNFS
Nature of the assay: cross-linking.

This is an account of results in paper doi:10.1101/2021.02.03.429618 (bioRxiv, 2021).

B1: human dihydrolipoyl succinyltransferase (hE2o) (enzyme, UniProt P36957 68-453, looked up)
chain: DDLVTVKTPAFAESVTEGDVRWEKAVGDTVAEDEVVCEIETDKTSVQVPSPANGVIEALLVPDGGKVEGGTPLFTLRKTGAAPAKAKPAEAPAAAAPKAEPTAAAVPPPAAPIPTQMPPVPSPSQPPSGKPVSAVKPTVAPPLAEPGAGKGLRSEHREKMNRMRQRIAQRLKEAQNTCAMLTTFNEIDMSNIQEMRARHKEAFLKKHNLKLGFMSAFVKASAFALQEQPVVNAVIDDTTKEVVYRDYIDISVAVATPRGLVVPVIRNVEAMNFADIERTITELGEKARKNELAIEDMDGGTFTISNGGVFGSLFGTPIINPPQSAILGMHGIFDRPVAIGGKVEVRPMMYVALTYDHRLIDGREAVTFLRKIKAAVEDPRVLLLDL
Take B1: the binding result was “binds”.
